Assay results as given in publication PMC10330758 (DNA repair, 2023).

Target: N-terminally his-tagged human DHX9 (human, UniProt Q08211 1-1270)
Experiment: pull-down

Sequence of N-terminally his-tagged human DHX9 (Q08211 whole entry): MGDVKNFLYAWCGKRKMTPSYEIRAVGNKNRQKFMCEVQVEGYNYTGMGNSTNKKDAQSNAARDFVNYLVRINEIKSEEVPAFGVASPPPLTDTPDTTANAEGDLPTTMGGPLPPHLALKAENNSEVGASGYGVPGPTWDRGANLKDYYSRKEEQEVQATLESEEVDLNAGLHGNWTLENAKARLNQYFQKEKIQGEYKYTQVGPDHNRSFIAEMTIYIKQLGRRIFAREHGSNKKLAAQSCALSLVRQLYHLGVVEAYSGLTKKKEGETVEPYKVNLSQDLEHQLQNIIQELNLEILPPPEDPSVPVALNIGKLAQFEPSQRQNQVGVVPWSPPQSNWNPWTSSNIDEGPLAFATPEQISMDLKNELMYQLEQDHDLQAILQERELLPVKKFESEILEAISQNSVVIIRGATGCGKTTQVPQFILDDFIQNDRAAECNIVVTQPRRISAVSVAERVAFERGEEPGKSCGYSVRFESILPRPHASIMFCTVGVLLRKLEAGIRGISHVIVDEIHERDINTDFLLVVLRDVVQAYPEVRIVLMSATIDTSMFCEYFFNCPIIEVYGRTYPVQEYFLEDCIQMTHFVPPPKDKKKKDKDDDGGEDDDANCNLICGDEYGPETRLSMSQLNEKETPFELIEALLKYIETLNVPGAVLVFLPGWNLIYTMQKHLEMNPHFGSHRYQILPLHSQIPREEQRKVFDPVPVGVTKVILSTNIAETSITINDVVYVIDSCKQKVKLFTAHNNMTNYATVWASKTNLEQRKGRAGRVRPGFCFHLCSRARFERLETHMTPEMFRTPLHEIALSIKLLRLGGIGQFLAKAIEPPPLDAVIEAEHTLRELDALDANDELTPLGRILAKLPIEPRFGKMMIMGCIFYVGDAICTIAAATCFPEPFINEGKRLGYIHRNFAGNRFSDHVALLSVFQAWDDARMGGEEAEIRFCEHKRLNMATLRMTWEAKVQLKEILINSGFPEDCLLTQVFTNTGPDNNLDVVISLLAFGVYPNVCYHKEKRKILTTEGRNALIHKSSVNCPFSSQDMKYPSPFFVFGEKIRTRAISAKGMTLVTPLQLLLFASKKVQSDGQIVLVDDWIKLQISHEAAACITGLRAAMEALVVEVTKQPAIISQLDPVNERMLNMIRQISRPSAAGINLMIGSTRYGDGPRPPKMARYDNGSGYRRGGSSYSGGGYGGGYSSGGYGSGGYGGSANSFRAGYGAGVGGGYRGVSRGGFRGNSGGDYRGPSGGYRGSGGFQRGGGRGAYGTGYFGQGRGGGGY

- binding result: binds
B1: Un-tagged p125 subunit of Pol δ (enzyme, human, UniProt P28340 1-1107, looked up)
chain: MDGKRRPGPGPGVPPKRARGGLWDDDDAPRPSQFEEDLALMEEMEAEHRLQEQEEEELQSVLEGVADGQVPPSAIDPRWLRPTPPALDPQTEPLIFQQLEIDHYVGPAQPVPGGPPPSRGSVPVLRAFGVTDEGFSVCCHIHGFAPYFYTPAPPGFGPEHMGDLQRELNLAISRDSRGGRELTGPAVLAVELCSRESMFGYHGHGPSPFLRITVALPRLVAPARRLLEQGIRVAGLGTPSFAPYEANVDFEIRFMVDTDIVGCNWLELPAGKYALRLKEKATQCQLEADVLWSDVVSHPPEGPWQRIAPLRVLSFDIECAGRKGIFPEPERDPVIQICSLGLRWGEPEPFLRLALTLRPCAPILGAKVQSYEKEEDLLQAWSTFIRIMDPDVITGYNIQNFDLPYLISRAQTLKVQTFPFLGRVAGLCSNIRDSSFQSKQTGRRDTKVVSMVGRVQMDMLQVLLREYKLRSYTLNAVSFHFLGEQKEDVQHSIITDLQNGNDQTRRRLAVYCLKDAYLPLRLLERLMVLVNAVEMARVTGVPLSYLLSRGQQVKVVSQLLRQAMHEGLLMPVVKSEGGEDYTGATVIEPLKGYYDVPIATLDFSSLYPSIMMAHNLCYTTLLRPGTAQKLGLTEDQFIRTPTGDEFVKTSVRKGLLPQILENLLSARKRAKAELAKETDPLRRQVLDGRQLALKVSANSVYGFTGAQVGKLPCLEISQSVTGFGRQMIEKTKQLVESKYTVENGYSTSAKVVYGDTDSVMCRFGVSSVAEAMALGREAADWVSGHFPSPIRLEFEKVYFPYLLISKKRYAGLLFSSRPDAHDRMDCKGLEAVRRDNCPLVANLVTASLRRLLIDRDPEGAVAHAQDVISDLLCNRIDISQLVITKELTRAASDYAGKQAHVELAERMRKRDPGSAPSLGDRVPYVIISAAKGVAAYMKSEDPLFVLEHSLPIDTQYYLEQQLAKPLLRIFEPILGEGRAEAVLLRGDHTRCKTVLTGKVGGLLAFAKRRNCCIGCRTVLSHQGAVCEFCQPRESELYQKEVSHLNALEERFSRLWTQCQRCQGSLHEDVICTSRDCPIFYMRKKVRKDLEDQEQLLRRFGPPGPEAW
